The source of these data is patent US20090060924A1 (Eli Lilly, published 2009).

The target of assay [1] is T1, human sclerostin (human, UniProt Q9BQB4 24-213).
T1 sequence: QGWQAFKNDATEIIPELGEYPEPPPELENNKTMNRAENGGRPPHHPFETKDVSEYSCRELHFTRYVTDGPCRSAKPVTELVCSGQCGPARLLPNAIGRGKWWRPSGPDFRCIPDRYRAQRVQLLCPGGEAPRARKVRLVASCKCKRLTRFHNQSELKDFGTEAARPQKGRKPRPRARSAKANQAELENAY
As to the kind of experiment: cell-based or functional assay.

Assay [2] addresses T2, cynomologous monkey sclerostin (cynomologous monkey). In words: cell-based or functional assay.
The target of assay [3] is T1, human sclerostin. In words: KinExA 3000 equilibrium binding in solution, 25 C, 1:1 model. The protocol:
(§1) Equilibrium binding studies between an anti-sclerostin antibody and either human, cynomologous (“cyno”) monkey or rat sclerostin are performed on a KinExA 3000 instrument (Sapidyne Instruments Inc.) under KD-controlled conditions. With this technique, a fixed concentration of antibody below its KD is mixed with various concentration of sclerostin protein and allowed to come to equilibrium. The fraction of free, unbound, antibody remaining in solution is probed by briefly exposing this equibrated mixture to sclerostin-coated beads followed by detection with a fluorescently labeled secondary antibody. Typically 2 μM of an anti-sclerostin antibody to be tested is mixed with varying concentrations of human, cyno, or rat sclerostin starting at 2-50 nM and doing three-fold serial dilutions in binding buffer (1× phosphate buffered saline solution, pH 7.4, 0.02% sodium azide and 1 mg/mL bovine serum albumin) containing 2 pM of the antibody to be tested. These solutions are allowed to reach equilibrium over two days at 25° C. The amount of unbound antibody is probed using human sclerostin-coated azlactone beads (Sapidyne Instruments Inc.). These beads are prepared by reacting 50 mg of dry azlactone beads with 50 mcg/ml human sclerostin in a 50 mM sodium carbonate buffer at pH 9.0-9.6 with overnight rotation. Beads are then allowed to settle and the supernatant is replaced with blocking solution (1 M Tris, pH 8.0, plus 10 mg/mL bovine serum albumin) and rotated for one hour. This bead stock is diluted 20-fold into binding buffer and used within three days. A KinExA 3000 instrument equilibrated at room temperature (ca 25° C.) is used for binding studies. Typically 6.25 mL of the equilibrated antibody/sclerostin solution are drawn over a packed human sclerostin-azlactone bead column at 0.25 mL/minute flow rate then rinsed with running buffer (1× phosphate buffered saline solution, pH 7.4 with 0.02% sodium azide). The fraction of free anti-sclerostin antibody bound to these beads is quantified by measuring fluorescence resulting from an injected labeled secondary antibody (Cy5-labeled goat anti-human Fab′2 antibody). Two replicate samples for each condition are analyzed and KD is determined by fitting data to a 1:1 binding model using KinExA Pro software.
(A kinetic exclusion assay measures how much of one partner remains free in solution.)

Assay [4] deals with T2, cynomologous monkey sclerostin. The assay is described as above. The protocol: as §1
A further assay addresses T3, rat sclerostin (rat, UniProt Q99P67 24-213, limits assumed).
T3 sequence (looked up): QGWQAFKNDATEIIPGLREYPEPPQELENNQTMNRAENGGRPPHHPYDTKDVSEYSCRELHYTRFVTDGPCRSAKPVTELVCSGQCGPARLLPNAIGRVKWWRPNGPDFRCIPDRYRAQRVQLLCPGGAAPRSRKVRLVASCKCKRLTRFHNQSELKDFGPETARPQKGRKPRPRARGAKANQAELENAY
The assay is described as above. The protocol:
as §1

B1: humanized anti-sclerostin monoclonal antibody 86 (antibody, human IgG4 S228P, kappa, V domains shown)
VH: QVQLVQSGAEVKKPGSSVKVSCKASGYTFTDYFLNWVRQAPGQGLEWMGTIYPYHDGTTYSQKFKGRVTITADKSTSTAYMELSSLRSEDTAVYYCAREEEDGQFDYWGQGTTVTVSS
VL: DIQMTQSPSSLSASVGDRVTITCSASQGIQWYLNWYQQKPGKAPKLLIYYTSSLHSGVPSRFSGSGSGTDFTLTISSLQPEDFATYYCQQHSKLPRTFGGGTKVEIKR
notes: Full-length humanized antibody; Two heavy and two light chains per claim 3
In the case of B1, the “IC50 (nM), bone specific alkaline phosphatase assay in C2C12 cells, using human sclerostin” value in the assay with human sclerostin [1] was 25.5 nM. The “IC50 (nM), bone specific alkaline phosphatase assay in C2C12 cells, using cyno sclerostin” value (“IC50 (nM) … using cyno sclerostin” below) in assay [2] is 31.6 nM. In addition, the values for the Kd (with human sclerostin [3]; in assay [4]; in the assay with rat sclerostin) were 0.6 pM, 1 pM and 0.1 pM, respectively.

B2: humanized anti-sclerostin monoclonal antibody 88 (antibody, human IgG4 S228P, kappa, V domains shown)
VH: QVQLVQSGAEVKKPGASVKVSCKVSGFPIKDTFQHWVRQAPGKGLEWMGWSDPEIGDTEYASKFQGRVTMTEDTSTDTAYMELSSLRSEDTAVYYCATGDTTYKFDFWGQGTTVTVSS
VL: DIQMTQSPSSLSASVGDRVTITCKASQDVHTAVAWYQQKPGKAPKLLIYWASTRWTGVPSRFSGSGSGTDFTLTISSLQPEDFATYYCQQYSDYPWTFGGGTKVEIKR
notes: Full-length humanized antibody; Derived from chimeric parent 788
As to B2, the “IC50 (nM) … using cyno sclerostin” value in assay [2] was found to be 23.7 nM. Also, the Kd is 75 pM in assay [4] and 2.2 pM with rat sclerostin.

B3: humanized anti-sclerostin monoclonal antibody 89 (antibody, human IgG4 S228P, kappa, V domains shown)
VH: EVQLVQSGAEVKKPGESLKISCKGSDFEIKDYYIHWVRQMPGKGLEWMGQIDAEDGETEYAPRFQGQVTISADKSISTAYLQWSSLKASDTAMYYCAREGYYYDGRDYWYFDVWGQGTTVTVSS
VL: EIVLTQSPATLSLSPGERATLSCSASSSVSYIHWYQQKPGQAPRLLIYSTSELASGIPARFSGSGSGTDFTLTISSLEPEDFAVYYCQQLSHLPLTFGGGTKVEIKR
notes: Full-length humanized antibody; Derived from chimeric parent 789
Take B3: the “IC50 (nM), bone specific alkaline phosphatase assay in C2C12 cells, using human sclerostin” value with human sclerostin [1] is 25.1 nM. The “IC50 (nM) … using cyno sclerostin” value in assay [2] is 34.4 nM. For the same molecule, the Kd with human sclerostin [3] is 0.3 pM; in assay [4], 1.4 pM; with rat sclerostin it was 0.4 pM.

As a reminder, the Kd is the concentration at which binding is half-saturated.
